PMC5740061 (Nature Communications, 2017)

B1: SDGF-TB1G1 (TB1G1 displayed on 293F cells) [designed binder] / Biotinylated His-Avi-TEAD1(194–411) [modified: biotin (BirA-500 kit); biotin (BirA-500 kit)] [not stated] (parent complex)
chain 1: PDEYIERAKECCKKGDIQCCLRYFEESGDPNVMLICLFCP
chain 2: RSIGTTKLRLVEFSAFLEQQRDPDSYNKHLFVHIGHANHSYSDPLLESVDIRQIYDKFPEKKGGLKELFGKGPQNAFFLVKFWADLNCNIQDDAGAFYGVTSQYESSENMTVTCSTKVCSFGKQVVEKVETEYARFENGRFVYRINRSPMCEYMINFIHKLKHLPEKYMMNSVLENFTILLVVTNRDTQETLLCMACVFEVSNSEHGAQHHIYRLVKD

Variants of: B1
Assay: mammalian (293F) surface display of a site-saturation mutagenesis library (every non-Cys single substitution), FACS sorting on biotinylated TEAD1 YBD, two sorting rounds, Illumina sequencing with perfect-match mapping; 20 nM biotinylated TEAD, monovalent 2-step stain (TEAD alone 30 min at 4 °C, dilute, pellet, then 20 nM streptavidin-Alexa Fluor 647), flow sorting on a BD Aria

Point of comparison: chain 1 PDEYSERAKECCKKGDIQCCLRYFEESGDPNVMLICLFCP [chain 1 I5S], enrichment -2.04 log2 (fold change of variant abundance after two TEAD sorts vs input, normalised to TB1G1). Against it:
- chain 1 PTEYIERAKECCKKGDIQCCLRYFEESGDPNVMLICLFCP [chain 1 D2T] — higher, -0.52 log2 (fold change of variant abundance after two TEAD sorts vs input, normalised to TB1G1)
- chain 1 PFEYIERAKECCKKGDIQCCLRYFEESGDPNVMLICLFCP [chain 1 D2F] — lower, -3.41 log2 (fold change of variant abundance after two TEAD sorts vs input, normalised to TB1G1)
- chain 1 PHEYIERAKECCKKGDIQCCLRYFEESGDPNVMLICLFCP [chain 1 D2H] — higher, -1.05 log2 (fold change of variant abundance after two TEAD sorts vs input, normalised to TB1G1)
- chain 1 PDEYIERAHECCKKGDIQCCLRYFEESGDPNVMLICLFCP [chain 1 K9H] — higher, -1.5 log2 (fold change of variant abundance after two TEAD sorts vs input, normalised to TB1G1)
- chain 1 PDEYIERADECCKKGDIQCCLRYFEESGDPNVMLICLFCP [chain 1 K9D] — higher, -0.576 log2 (fold change of variant abundance after two TEAD sorts vs input, normalised to TB1G1)
- chain 1 PDEYIELAKECCKKGDIQCCLRYFEESGDPNVMLICLFCP [chain 1 R7L] — higher, -0.388 log2 (fold change of variant abundance after two TEAD sorts vs input, normalised to TB1G1)
- chain 1 PDEYIEEAKECCKKGDIQCCLRYFEESGDPNVMLICLFCP [chain 1 R7E] — higher, -0.163 log2 (fold change of variant abundance after two TEAD sorts vs input, normalised to TB1G1)
- chain 1 PDNYIERAKECCKKGDIQCCLRYFEESGDPNVMLICLFCP [chain 1 E3N] — higher, 0.579 log2 (fold change of variant abundance after two TEAD sorts vs input, normalised to TB1G1)
- chain 1 PDWYIERAKECCKKGDIQCCLRYFEESGDPNVMLICLFCP [chain 1 E3W] — higher, -1.4 log2 (fold change of variant abundance after two TEAD sorts vs input, normalised to TB1G1)
- chain 1 PDKYIERAKECCKKGDIQCCLRYFEESGDPNVMLICLFCP [chain 1 E3K] — higher, -0.5 log2 (fold change of variant abundance after two TEAD sorts vs input, normalised to TB1G1)
- chain 1 PDEYIRRAKECCKKGDIQCCLRYFEESGDPNVMLICLFCP [chain 1 E6R] — higher, -1.78 log2 (fold change of variant abundance after two TEAD sorts vs input, normalised to TB1G1)
- chain 1 PDEYIDRAKECCKKGDIQCCLRYFEESGDPNVMLICLFCP [chain 1 E6D] — higher, -0.602 log2 (fold change of variant abundance after two TEAD sorts vs input, normalised to TB1G1)
- chain 1 PDEYINRAKECCKKGDIQCCLRYFEESGDPNVMLICLFCP [chain 1 E6N] — higher, -0.816 log2 (fold change of variant abundance after two TEAD sorts vs input, normalised to TB1G1)
- chain 1 PDEYIKRAKECCKKGDIQCCLRYFEESGDPNVMLICLFCP [chain 1 E6K] — higher, -1.13 log2 (fold change of variant abundance after two TEAD sorts vs input, normalised to TB1G1)
- chain 1 PDEYIERFKECCKKGDIQCCLRYFEESGDPNVMLICLFCP [chain 1 A8F] — lower, -4.33 log2 (fold change of variant abundance after two TEAD sorts vs input, normalised to TB1G1)
- chain 1 PDEYIERWKECCKKGDIQCCLRYFEESGDPNVMLICLFCP [chain 1 A8W] — lower, -5.46 log2 (fold change of variant abundance after two TEAD sorts vs input, normalised to TB1G1)
- chain 1 VDEYIERAKECCKKGDIQCCLRYFEESGDPNVMLICLFCP [chain 1 P1V] — higher, -0.595 log2 (fold change of variant abundance after two TEAD sorts vs input, normalised to TB1G1)
- chain 1 LDEYIERAKECCKKGDIQCCLRYFEESGDPNVMLICLFCP [chain 1 P1L] — lower, -2.9 log2 (fold change of variant abundance after two TEAD sorts vs input, normalised to TB1G1)
- chain 1 PDELIERAKECCKKGDIQCCLRYFEESGDPNVMLICLFCP [chain 1 Y4L] — higher, -1.81 log2 (fold change of variant abundance after two TEAD sorts vs input, normalised to TB1G1)
- chain 1 PDEQIERAKECCKKGDIQCCLRYFEESGDPNVMLICLFCP [chain 1 Y4Q] — higher, 0.291 log2 (fold change of variant abundance after two TEAD sorts vs input, normalised to TB1G1)
- chain 1 PDEDIERAKECCKKGDIQCCLRYFEESGDPNVMLICLFCP [chain 1 Y4D] — higher, -1.79 log2 (fold change of variant abundance after two TEAD sorts vs input, normalised to TB1G1)
